Here are results for nine molecules from patent US20190330337A1, “Tunable Chimeric Antigen Receptors” (AUTOLUS LIMITED, priority 2016, published 2019).

Entries after “also recorded” stand apart in the source; their conditions may differ.

One assay has as its target streptavidin (Streptomyces avidinii, UniProt P22629). The conditions noted are these: biotin mimicking peptide binding streptavidin; read-out: affinity; cited from earlier work.
In assay [1] the test system is SupT1 cells engineered to express CD33. Put plainly: Activation of TetCAR BW5 T-cells challenged with SupT1 cells expressing CD33. It is filed as cell-based. The source says: A bicistronic construct was expressed in BW5 T cells as a single transcript which self-cleaves at the 2A site to yield a signalling component which comprises TiP fused via a flexible linker to the endodomain of CD3-Zeta; and a receptor component which comprises a CD33 recognizing scFv, a spacer derived from the Fc domain of IgG1, a CD4 derived transmembrane and intracellular domain; and TetR (FIG. 19a). A control was also expressed which was identical except that TiP was absent from the signalling component (FIG. 19b).
The BW5 T-cells were challenged with wild-type SupT1 cells or SupT1 cells engineered to express CD33 in the absence of tetracycline or in the presence of increasing concentrations of tetracycline.
Control TetCAR which lacks the TiP domain was also transduced into BW5. Once again, these T-cells were challenged with wild-type SupT1 cells or SupT1 cells engineered to express CD33 in the absence or in the presence of increasing concentration of Tetracycline.

For assay [2], the target named is T1, CD22 (Homo sapiens, UniProt P20273). Put plainly: SPR (Biacore T200), scFv-Fc captured on anti-IgG CM5 chip, interaction partner protein injected, 1:1 Langmuir fit. (In general: Surface plasmon resonance follows binding to a sensor surface in real time, without labels.)
Assay [3] has as its target T1, CD22. Kind of assay: Biacore affinity determination of CD22 binders. The class given is binding. The conditions noted are these: scFv format, FIG. 6, result in words. As for the experimental part:
A CD19-binder (CD19ALAb) was identified, humanised and the binding affinities of both murine and humanised IgGs and scFvs were identified and compared with the “gold-standard” anti-CD19 binder, fmc63. In parallel, and a CD22-binder (CD22ALAb) was identified, humanised and the binding affinities of both murine and humanised IgGs and scFvs were identified and compared with the “gold-standard” anti-CD22 binder, M971.
Experiments were performed on a Biacore T200 instrument using HBS-P as running and dilution buffer. BIAevaluation software Version 2.0 was used for data processing. For binding kinetics, mouse anti-human IgG or goat anti-mouse IgG was covalently coupled to a CM5 Sensor Chip. IgG or scFv-Fc proteins were captured, and various concentrations of interaction partner protein injected over the flow cell at a flow rate of 30 μl/min. Kinetic rate constants were obtained by curve fitting according to a 1:1 Langmuir binding model. Bulk refractive index differences were subtracted using a blank control flow cell in which capture antibody had been immobilized to the same level as the active surface. A double reference subtraction was performed using buffer alone.

The target in a further assay is CD19 (human) (UniProt P15391). Kind of assay: SPR (Biacore T200), scFv-Fc captured on anti-IgG CM5 chip, interaction partner protein injected, 1:1 Langmuir fit.

Broadly, the koff is a measure of how fast the partners let go of each other. Broadly, the kon is the rate constant with which the complex forms. Low values mean slow association, high ones fast association.

CD19 (human), sequence (P15391 20-291 limits assumed): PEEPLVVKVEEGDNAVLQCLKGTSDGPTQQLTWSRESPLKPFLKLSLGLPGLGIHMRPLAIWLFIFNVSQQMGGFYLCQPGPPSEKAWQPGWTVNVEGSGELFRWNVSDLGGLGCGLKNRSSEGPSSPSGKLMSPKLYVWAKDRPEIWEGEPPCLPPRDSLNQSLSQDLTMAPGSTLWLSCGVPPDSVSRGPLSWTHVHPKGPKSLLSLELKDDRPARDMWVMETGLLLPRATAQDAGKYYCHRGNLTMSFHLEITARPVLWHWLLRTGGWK
streptavidin, sequence (P22629 37-163 limits assumed): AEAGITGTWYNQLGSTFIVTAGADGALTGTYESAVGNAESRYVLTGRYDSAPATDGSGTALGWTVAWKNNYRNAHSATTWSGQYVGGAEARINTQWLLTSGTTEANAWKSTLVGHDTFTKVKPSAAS

“Biotin mimicking peptide DVEAWLDERVPLVET (SEQ ID NO: 30) (Biotin mimicking peptide, long nanotag)”: in the assay with streptavidin, the Kd is 3.6 nM.

Take “Biotin mimicking peptide DVEAWLGAR (SEQ ID NO: 31) (Biotin mimicking peptide, short nanotag)”: the Kd with streptavidin is 17 nM. Regarding “Biotin mimicking peptide WRHPQFGG (SEQ ID NO: 32) (Biotin mimicking peptide, streptag)”, the Kd with streptavidin is 72000 nM. Take `CN(C)[C@@H]1C(O)=C(C(N)=O)C(=O)[C@@]2(O)C(O)=C3C(=O)c4c(O)cccc4[C@@](C)(O)[C@H]3C[C@@H]12` [tetracycline, reference compound]: the “concentration of tetracycline at which activation is fully inhibited” value in assay [1] is listed as 100 nM. “Biotin mimicking peptide CHPQGPPC (SEQ ID NO: 35) (Biotin mimicking peptide, ccstreptag)”: the Kd with streptavidin was 230 nM.

B1: Humanised CD22ALAb scFv (scFv, part only; not given: Fc part and VH-VL linker, not shown: another chain or arm of the molecule; a dimerising Fc or GST; small tags and cut ends)
scFv: EVQLVESGAEVKKPGSSVKVSCKASGYTFTNYWINWVRQAPGQGLEWIGNIYPSDSFTNYNQKFKDRATLTVDKSTSTAYLELRNLRSDDTAVYYCTRDTQERSWYFDVWGQGTLVTVSSDIVMTQSPATLSVSPGERATLSCRSSQSLVHSNGNTYLHWYQQKPGQAPRLLIYKVSNRFSGVPARFSGSGSGVEFTLTISSLQSEDFAVYYCSQSTHVPWTFGQGTRLEIK
With B1, in the assay with CD22 [2], the Kd worked out at 32 nM, the off-rate (koff) came to 0.00226 s⁻¹ and the kon was 68300 M⁻¹ s⁻¹.

B2: humanised CD22ALAb: Humanised CD22ALAb scFv, SEQ ID No. 26 (protein)
scFv: B1 scFv
modifications: CAR, Humanised CD22ALAb scFv sequence
With B2, in the assay with CD22 [3], the “binding affinity to CD22” value was “comparable binding affinity to CD22 to murine CD22ALAb; also recorded: significantly higher binding affinity to CD22 than the gold-standard CD22-binding antibody, M971”.

B3: murine CD22ALAb: Murine CD22ALAb scFv, SEQ ID No. 25 (protein)
scFv: QVQLQQPGAELVRPGASVKLSCKASGYTFTNYWINWVKQRPGQGLEWIGNIYPSDSFTNYNQKFKDKATLTVDKSSSTAYMQLSSPTSEDSAVYYCTRDTQERSWYFDVWGAGTTVTVSSDVVMTQTPLSLPVSLGDQASISCRSSQSLVHSNGNTYLHWYLQKPGQSPKLLIYKVSNRFSGVPDRFSGSGSGTDFTLKISRVEAEDLGLYFCSQSTHVPWTFGGGTKLEIK
modifications: CAR, Murine CD22ALAb scFv sequence
Consider B3, for which the “binding affinity to CD22” value with CD22 [3] is listed as “significantly higher binding affinity to CD22 than the gold-standard CD22-binding antibody, M971”.

B4: Murine CD19ALAb scFv (scFv, part only; not given: Fc part and VH-VL linker, not shown: another chain or arm of the molecule; a dimerising Fc or GST; small tags and cut ends)
scFv: QVQLQQSGAELVRPGSSVKISCKASGYAFSSYWMNWVKQRPGQGLEWIGQIWPGDGDTNYNGKFKGKATLTADESSSTAYMQLSSLASEDSAVYFCARRETTTVGRYYYAMDYWGQGTTVTVSSDIQLTQSPASLAVSLGQRATISCKASQSVDYDGDSYLNWYQQIPGQPPKLLIYDASNLVSGIPPRFSGSGSGTDFTLNIHPVEKVDAATYHCQQSTEDPWTFGGGTKLEIK
With B4, in the assay with CD19 (human), the Kd is 1.85 nM, the koff turned out to be 0.000328 s⁻¹ and the kon came out at 178000 M⁻¹ s⁻¹.
